Measured values: the RNAGym collection of RNA variant scans (doi:10.1073/pnas.2313332121)
Variants at the floor of the assay were thinned out.

B1: TPR 5TU (parent)
chain: GGAUCUUCUCGAUCUAACAAAAAAGACAAAUCUGCCACAAAGCUUGAGAGCAUCUUCGGAUGCAGAGGCGGCAGCCUUCGGUGGCGCGAUAGCGCCAACGUUCUCAACUAUGACACGCAAAACGCGUGCUCCGUUGAAUGGAGUUUAUCAUG

Variants of: B1
Test: polymerase ribozyme fitness, log enrichment relative to wild type (log ratio); higher = more active; in vitro selection for triplet polymerase activity
Procedure, shortened: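 A single round of triplicate in vitro selection, including frozen incubation at −7 °C, was applied to PCR-built, transcribed mutant libraries of each subunit of a heterodimeric triplet polymerase ribozyme. Illumina sequencing of input and output libraries retained genotypes with ≥10 input reads and ≥1 read per output. Fitness is the base-2 logarithm of genotype enrichment divided by wild-type enrichment, from inverse-variance-weighted replicate averages.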

First: U45C A119C
Second: G46A G84U C99A A110C C114U U146C
The “polymerase ribozyme fitness (log ratio)” value of the first is higher: -0.959 for the first, ≤ -4.2 for the second.

U45G U53A C75A C93A A113G and U45G A47U A49C U61A C76A C87A U146G cannot be ordered by “polymerase ribozyme fitness (log ratio)” value: ≤ -4.2 for the first, ≤ -4.2 for the second.

First: U45A G117U
Second: A47C A119G
The “polymerase ribozyme fitness (log ratio)” value of the first is lower: -3.08 for the first, 0.0948 for the second.

Going from G46A C85G A106C C125A to A47G G84U C149U, the “polymerase ribozyme fitness (log ratio)” value rises from ≤ -4.2 to -3.35.

Compared with U45G C87U, U45G C54A U55A C85G G133U is lower in “polymerase ribozyme fitness (log ratio)” value: -1.32 for the first, ≤ -4.2 for the second.

G46U C85U A91C and G46A C63G G67C C85U cannot be ordered by “polymerase ribozyme fitness (log ratio)” value: ≤ -4.2 for the first, ≤ -4.2 for the second.

Going from G46C C54U G94A C99A A142U U151C to A47C U56A A60G C85U C96U A150U, the “polymerase ribozyme fitness (log ratio)” value rises from ≤ -4.2 to -0.791.

First: G46C A66C C85U C93G C118U
Second: A47G A52G C87U A98G
The “polymerase ribozyme fitness (log ratio)” value of the first is lower: ≤ -4.2 for the first, -1.52 for the second.

First: A47C G59A C72U G81C A89G G128C U134C
Second: G46U A120U
The “polymerase ribozyme fitness (log ratio)” value of the first is lower: ≤ -4.2 for the first, -0.29 for the second.

Going from A47C U82A to G46U C85G, the “polymerase ribozyme fitness (log ratio)” value falls from -0.366 to -1.84.

First: U45G G59A
Second: G46U G68C G94C
The “polymerase ribozyme fitness (log ratio)” value of the first is higher: -0.523 for the first, ≤ -4.2 for the second.

G46C C72U G94A U102C A110G C125G A147C and U45A G58A G59C A60G G133A cannot be ordered by “polymerase ribozyme fitness (log ratio)” value: ≤ -4.2 for the first, ≤ -4.2 for the second.

A47C G92U C105U C131G and G46A C85A G136U G140U A142G cannot be ordered by “polymerase ribozyme fitness (log ratio)” value: ≤ -4.2 for the first, ≤ -4.2 for the second.

A47G U55A C63G G84C and G46A G67A G84U A97G C99U C116U cannot be ordered by “polymerase ribozyme fitness (log ratio)” value: ≤ -4.2 for the first, ≤ -4.2 for the second.

Going from A47C U102G A115U A142G U148A to A47C G83A C99U A120U, the “polymerase ribozyme fitness (log ratio)” value rises from ≤ -4.2 to -3.03.

Compared with A47C G59C G86A, U45G A52U is higher in “polymerase ribozyme fitness (log ratio)” value: ≤ -4.2 for the first, -3.15 for the second.

Going from U45G C75U C103G C118G to A47C C95U C96U C118U C131U, the “polymerase ribozyme fitness (log ratio)” value rises from ≤ -4.2 to -1.83.

First: A47G G84U U135A
Second: U45G G92U C103A U104A
The “polymerase ribozyme fitness (log ratio)” value of the first is higher: -2.45 for the first, ≤ -4.2 for the second.

U45G U53A U56C G84A C125U A137G G140U C149A and U45A G86A A142G cannot be ordered by “polymerase ribozyme fitness (log ratio)” value: ≤ -4.2 for the first, ≤ -4.2 for the second.

Compared with U45A G46A U55C A66G U77G U82A C103G U135C U145C, A47C C57A G84U A89C is higher in “polymerase ribozyme fitness (log ratio)” value: ≤ -4.2 for the first, -1.5 for the second.

Compared with G46U G59C C96G, U45A G92C is lower in “polymerase ribozyme fitness (log ratio)” value: -3.41 for the first, -3.75 for the second.

Compared with U45A G92U, U45G A52G U82C U101G C131U is lower in “polymerase ribozyme fitness (log ratio)” value: -2.75 for the first, -3.32 for the second.

Compared with U45G C87U U101C, A47G A115C is higher in “polymerase ribozyme fitness (log ratio)” value: -3.99 for the first, -0.724 for the second.

Compared with U45G U56A, A47C C96U A107U is lower in “polymerase ribozyme fitness (log ratio)” value: 0.0147 for the first, -3.57 for the second.

Going from G46A U53G to A47C G94A, the “polymerase ribozyme fitness (log ratio)” value rises from -3.49 to -2.54.

Going from A47C C51U G58C G70A C96U A106U U151C to A47G A52C A97U, the “polymerase ribozyme fitness (log ratio)” value rises from ≤ -4.2 to -1.2.

First: G46A C54G G86U G117A A119G A137G G141C G143U
Second: A47G G58C G65A G141U
The “polymerase ribozyme fitness (log ratio)” value of the first is lower: ≤ -4.2 for the first, -1.24 for the second.

G46A G68C G83C A147U and A47C G50U G58U A91G A97U U102A cannot be ordered by “polymerase ribozyme fitness (log ratio)” value: ≤ -4.2 for the first, ≤ -4.2 for the second.

First: U45G C54A C87G A121U C123G
Second: G46U C69G
The “polymerase ribozyme fitness (log ratio)” value of the first is lower: ≤ -4.2 for the first, -0.758 for the second.

G46C G50C A89G A107C G152C and G46U G71C C95U A97U A115C G136U cannot be ordered by “polymerase ribozyme fitness (log ratio)” value: ≤ -4.2 for the first, ≤ -4.2 for the second.

Going from U45G G152A to G46C G68A U101G G117U, the “polymerase ribozyme fitness (log ratio)” value falls from -1.18 to ≤ -4.2.

Compared with G46C U61G G81C C114U C116G A147G, A47G G84U is higher in “polymerase ribozyme fitness (log ratio)” value: ≤ -4.2 for the first, -1.59 for the second.

Going from A47G G84C to G46C U109G, the “polymerase ribozyme fitness (log ratio)” value rises from -2.56 to -1.81.

Going from U45G A47C A142G to A47C G50A U102C U146A, the “polymerase ribozyme fitness (log ratio)” value rises from -3.91 to -2.55.

A47G A49C A52G G81U G83C U134A and U45A G65A G86U cannot be ordered by “polymerase ribozyme fitness (log ratio)” value: ≤ -4.2 for the first, ≤ -4.2 for the second.

G46U G83U A91U A106U U148C and U45A U77A C87U U90G G92C G126A A138G cannot be ordered by “polymerase ribozyme fitness (log ratio)” value: ≤ -4.2 for the first, ≤ -4.2 for the second.

Going from A47G G84U A106G to G46U G59A A60C, the “polymerase ribozyme fitness (log ratio)” value falls from -2.24 to -2.54.

First: G46C A49U C72U C116U
Second: A47C C129G
The “polymerase ribozyme fitness (log ratio)” value of the first is lower: ≤ -4.2 for the first, -4.19 for the second.

First: U45A G67C G84U C108U A120U
Second: A47G G58C G112C
The “polymerase ribozyme fitness (log ratio)” value of the first is lower: ≤ -4.2 for the first, -3.97 for the second.

Going from U45G C93A C95U to U45G U61G C87G G88C C118G C129G G141A, the “polymerase ribozyme fitness (log ratio)” value falls from -3.98 to ≤ -4.2.

Going from A47C G59A to A47C G83C G112C, the “polymerase ribozyme fitness (log ratio)” value falls from 0.309 to ≤ -4.2.

Compared with A47G C96U G124C, A47C A49C G65A G84A A113G G141A is lower in “polymerase ribozyme fitness (log ratio)” value: -1.06 for the first, ≤ -4.2 for the second.
